Experimental data published in article PMC9481538, “The interaction between LC8 and LCA5 reveals a novel oligomerization function of LC8 in the ciliary-centrosome system” (Scientific Reports, 2022).

Tests used:
LC8 = biological target: T1, LC8 (Homo sapiens, UniProt Q96FJ2); conditions: literature, ref (6)-(10) of supplement, cited from earlier work; for Number of monomeric LC8 in complex / Number of monomeric binding partners in complex: composition of complexes
T1 construct: 6xHis (N); made in house; host or cells: E. coli BL21 (DE3) Rosetta
Source text: According to the standard model of LC8 interactions, the dimeric interface of LC8 presents two interaction sites for partners which also form dimers, implying a 1:1 stoichiometry. Partners with two adjacent binding motifs, like ANA2, follow a 1:2 stoichiometry by binding two LC8[18]. Intriguingly, we observed a 2:1 LCA5:LC8 stoichiometry for the ΔCQS and the ΔVQT mutants, which means that one LC8 dimer binds four LCA5 chains (Supplementary Table S1). A reasonable interpretation is that the native LCA5 is dimeric and thus a pair of LCA5 dimers bind to one dimeric LC8. In such a situation, one i ... || page 10: Composition of complexes Number of LC8 Number of Ratio of LCA5 LC8 binding monomeric binding monomeric LC8 in monomers to LC8 Gene name sites partners in complex complex monomers SWA (6) 1 2 2 1:1 DYNC1I1 (7) 1 2 2 1:1 WDR34-WDR60 3 1+1 6 1:3 (8) ANA2 (9) 2 2 4 1:2 ASCIZ (10) 11 2 22 1:11 sLCA5-WT 2 4 4 1:1 sLCA5-single 1 4 2 2:1 mutants Supplementary Table S1. Stoichiometries of various LC8 binding partners in complex with LC8. Known LC8 binding partners according to literature data always form dimers upon LC8 binding. The stoichiometry is basically 1:1 in case of one LC8 binding sit ...

LC8 in hTERT-RPE1 cells = assay: immunofluorescence colocalization of LCA5 and LC8; format: cell-based; conditions: for Pearson's correlation coefficient, LCA5 and LC8: Z-stack images, JACoP
Method: hTERT-RPE1 cells were seeded on poly-lysine-coated 21 mm coverslips. After 24 h, cells were serum-starved for an additional 72 h. Cells were washed with DPBS (Lonza) two times and once in cytoskeletal buffer (10 mM PIPES, 100 mM NaCl, 3 mM MgCl2, 300 mM Sucrose, 5 mM EGTA, 0.5% Triton-X 100, pH 6.9)[44]. Subsequently, cells were fixed in a cytoskeletal buffer containing 4% PFA for 10 min at 37 °C. Fixed cells were washed with DPBS and permeabilised for an additional 30 min in 0.5% Triton-X 100 in DPBS and incubated for 1 h in a blocking buffer (2% BSA, 0.1% Triton-X 100 in DPBS) at room temperature. Primary and secondary antibodies were diluted in a blocking buffer. The cells were incubated with rabbit anti-lebercilin 1:200 (Proteintech 19,333-1-AP), goat anti-LC8 1:100 (Invitrogen PA5-47,957), mouse anti-acetylated-α-tubulin 1:15,000 (Sigma Aldrich 5335S) overnight at 4 °C. Finally, cells were treated with secondary antibodies (anti-goat-Alexa Fluor 488 1:800, anti-mouse-CY3 1:800, anti-rabbit-Alexa Fluor 647 1:800 Jackson ImmunoResearch) for 1 h at room temperature. Coverslips were mounted using ProLong Diamond antifade mountant with DAPI (Invitrogen) and imaged with an inverted Zeiss LSM 800, the image processing was completed with Fiji ImageJ software. The calculations of the colocalization were performed using the JACoP plugin of ImageJ software. The Pearson’s coefficient and the Manders coefficients were calculated on Z-stack images of primary cilia and centrosomes of hTERT-RPE1 cells using manual thresholds. For the statistical analysis of the colocalization a randomization based Costes method was used.

[1] = centrosome, late interphase hTERT-RPE1 cells
[2] = ciliary basal body, ciliated hTERT-RPE1 cells

T1 sequence (Q96FJ2 whole entry): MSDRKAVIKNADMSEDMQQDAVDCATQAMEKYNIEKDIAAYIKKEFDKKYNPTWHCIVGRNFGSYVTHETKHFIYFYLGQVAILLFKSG

Molecule | Number of monomeric LC8 in complex (LC8) | Number of monomeric binding partners in complex (LC8) | LC8 binding sites (LC8) | thresholded Manders LC8 to LCA5 tM2 (LC8 in hTERT-RPE1 cells; [1]) | thresholded Manders LCA5 to LC8 tM1 (LC8 in hTERT-RPE1 cells; [1]) | Pearson's correlation coefficient, LCA5 and LC8 (LC8 in hTERT-RPE1 cells; [1]) | thresholded Manders LC8 to LCA5 tM2 (LC8 in hTERT-RPE1 cells; [2]) | thresholded Manders LCA5 to LC8 tM1 (LC8 in hTERT-RPE1 cells; [2]) | Pearson's correlation coefficient, LCA5 and LC8 (LC8 in hTERT-RPE1 cells; [2])
ASCIZ: known LC8 binding partner, literature (protein, UniProt O43313 1-823, looked up) ATM interactor: MAASEAAAAAGSAALAAGARAVPAATTGAAAAASGPWVPPGPRLRGSRPRPAGATQQPAVPAPPAGELIQPSVSELSRAVRTNILCTVRGCGKILPNSPALNMHLVKSHRLQDGIVNPTIRKDLKTGPKFYCCPIEGCPRGPERPFSQFSLVKQHFMKMHAEKKHKCSKCSNSYGTEWDLKRHAEDCGKTFRCTCGCPYASRTALQSHIYRTGHEIPAEHRDPPSKKRKMENCAQNQKLSNKTIESLNNQPIPRPDTQELEASEIKLEPSFEDSCGSNTDKQTLTTPPRYPQKLLLPKPKVALVKLPVMQFSVMPVFVPTADSSAQPVVLGVDQGSATGAVHLMPLSVGTLILGLDSEACSLKESLPLFKIANPIAGEPISTGVQVNFGKSPSNPLQELGNTCQKNSISSINVQTDLSYASQNFIPSAQWATADSSVSSCSQTDLSFDSQVSLPISVHTQTFLPSSKVTSSIAAQTDAFMDTCFQSGGVSRETQTSGIESPTDDHVQMDQAGMCGDIFESVHSSYNVATGNIISNSLVAETVTHSLLPQNEPKTLNQDIEKSAPIINFSAQNSMLPSQNMTDNQTQTIDLLSDLENILSSNLPAQTLDHRSLLSDTNPGPDTQLPSGPAQNPGIDFDIEEFFSASNIQTQTEESELSTMTTEPVLESLDIETQTDFLLADTSAQSYGCRGNSNFLGLEMFDTQTQTDLNFFLDSSPHLPLGSILKHSSFSVSTDSSDTETQTEGVSTAKNIPALESKVQLNSTETQTMSSGFETLGSLFFTSNETQTAMDDFLLADLAWNTMESQFSSVETQTSAEPHTVSNF | 22 | 2 | 11 | – | – | – | – | – | –
SWA: known LC8 binding partner, literature (protein, UniProt P40688 1-548, looked up) Protein swallow: MSLQDESFPTDELFDQLNNLSSSGARNTWFAEHHKPAVFERDTAPFLEICYADPDFDADGDVANKSAKTCVSDPVGRDQEDEDDYDEDVDGDDHKLGCEKAPLGSGRSSKAVSYQDIHSAYTKRRFQHVTSKVGQYIAEIQAQDQKRRNVKFAGFQRVNSMPESLTPTLQQVYVHDGDFKVDKNCQTHSNSDSNYNSNSNNSSSSFDRLLAENESLQQKINSLRVEAKRLQGFNEYVQERLDRKTDDFVKMKCNFETLRTELSECQQKLRRQQDNSQHHFMYHIRSATSAKATQTDFLVDTIPASGNVLVTPHPLGDLTYNSSKGSIELALLSVAPSARVAQNPVQVQRAIHPQSLDFSSVSTEADGSGSGEHRVETSSRALVRRTPAPNNSETSQPSSNDSAIEVEAHEEERPSSRRQWEQQGELISPRQWGQHEGMYYFDKRNNRVIEVMGFNISQGRNQSHDTIHNQSINDSQTRLLVHSMSMSHLEAHDHFRSKRTTLGSRMLRFLGPCVRCRNGDPLNRSNVTYKDGLPAMPEEEFVDQRNQR | 2 | 2 | 1 | – | – | – | – | – | –
DYNC1I1: known LC8 binding partner, literature (protein, UniProt O14576 2-645, looked up) Cytoplasmic dynein 1 …: SDKSDLKAELERKKQRLAQIREEKKRKEEERKKKEADMQQKKEPVQDDSDLDRKRRETEALLQSIGISPEPPLVQPLHFLTWDTCYFHYLVPTPMSPSSKSVSTPSEAGSQDSGDLGPLTRTLQWDTDPSVLQLQSDSELGRRLHKLGVSKVTQVDFLPREVVSYSKETQTPLATHQSEEDEEDEEMVESKVGQDSELENQDKKQEVKEAPPRELTEEEKQQILHSEEFLIFFDRTIRVIERALAEDSDIFFDYSGRELEEKDGDVQAGANLSFNRQFYDEHWSKHRVVTCMDWSLQYPELMVASYNNNEDAPHEPDGVALVWNMKFKKTTPEYVFHCQSSVMSVCFARFHPNLVVGGTYSGQIVLWDNRSHRRTPVQRTPLSAAAHTHPVYCVNVVGTQNAHNLITVSTDGKMCSWSLDMLSTPQESMELVYNKSKPVAVTGMAFPTGDVNNFVVGSEEGTVYTACRHGSKAGIGEVFEGHQGPVTGINCHMAVGPIDFSHLFVTSSFDWTVKLWTTKHNKPLYSFEDNADYVYDVMWSPVHPALFACVDGMGRLDLWNLNNDTEVPTASVAIEGASALNRVRWAQAGKEVAVGDSEGRIWVYDVGELAVPHNDEWTRFARTLVEIRANRADSEEEGTVELSA | 2 | 2 | 1 | – | – | – | – | – | –
LCA5: 697 amino acid long protein lebercilin, cellular (protein, UniProt Q86VQ0 1-697, looked up, full-length, 697 amino acid long protein lebercilin, cellular) MGERAGSPGTDQERKAGKHHYSYLSDFETPQSSGRSSLVSSSPASVRRKNPKRQTSDGQVHHQAPRKPSPKGLPNRKGVRVGFRSQSLNREPLRKDTDLVTKRILSARLLKINELQNEVSELQVKLAELLKENKSLKRLQYRQEKALNKFEDAENEISQLIFRHNNEITALKERLRKSQEKERATEKRVKDTESELFRTKFSLQKLKEISEARHLPERDDLAKKLVSAELKLDDTERRIKELSKNLELSTNSFQRQLLAERKRAYEAHDENKVLQKEVQRLYHKLKEKERELDIKNIYSNRLPKSSPNKEKELALRKNAACQSDFADLCTKGVQTMEDFKPEEYPLTPETIMCYENKWEEPGHLTLDLQSQKQDRHGEAGILNPIMEREEKFVTDEELHVVKQEVEKLEDEWEREELDKKQKEKASLLEREEKPEWETGRYQLGMYPIQNMDKLQGEEEERLKREMLLAKLNEIDRELQDSRNLKYPVLPLLPDFESKLHSPERSPKTYRFSESSERLFNGHHLQDISFSTPKGEGQNSGNVRSPASPNEFAFGSYVPSFAKTSERSNPFSQKSSFLDFQRNSMEKLSKDGVDLITRKEKKANLMEQLFGASGSSTISSKSSDPNSVASSKGDIDPLNFLPGNKGSRDQEHDEDEGFFLSEGRSFNPNRHRLKHADDKPAVKAADSVEDEIEEVALR | – | – | – | 0.574 | 0.929 | 0.802 | 0.718 | 0.671 | 0.715
